Results from article PMC6775479.

Tests used:
[1] = biological target: L1-I peptide (HPV16 L1 residues 474-488) (human papillomavirus type 16); assay: ITC; peptide (1 mM) in 50 mM phosphate buffer pH 7.4 in the sample cell; 3HP-β-LG or β-LG (50 μM) in the titration needle; 18°C, 2 μl injections
[2] = biological target: L1-II peptide (HPV16 L1 residues 493-505) (human papillomavirus type 16); assay: as above
[3] = biological target: HPV16 L1 protein (human papillomavirus type 16) (UniProt P03101)
Chain of UniProt P03101 (P03101 whole entry): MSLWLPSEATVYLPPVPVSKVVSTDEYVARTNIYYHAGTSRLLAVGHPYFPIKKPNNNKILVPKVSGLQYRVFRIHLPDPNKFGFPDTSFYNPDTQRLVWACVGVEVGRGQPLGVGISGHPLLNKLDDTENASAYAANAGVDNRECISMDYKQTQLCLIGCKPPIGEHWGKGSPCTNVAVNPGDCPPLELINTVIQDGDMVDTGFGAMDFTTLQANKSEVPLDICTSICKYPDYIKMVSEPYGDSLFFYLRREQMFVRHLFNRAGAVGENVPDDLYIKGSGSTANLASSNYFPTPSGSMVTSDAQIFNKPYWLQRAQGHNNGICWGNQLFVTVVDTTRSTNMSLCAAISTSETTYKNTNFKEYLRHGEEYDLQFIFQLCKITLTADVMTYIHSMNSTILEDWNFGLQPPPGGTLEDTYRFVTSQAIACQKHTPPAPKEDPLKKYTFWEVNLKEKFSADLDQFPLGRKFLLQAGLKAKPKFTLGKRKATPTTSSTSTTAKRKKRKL

“3-hydroxyphthalic anhydride (3HP)-modified bovine beta-lactoglobulin (from UniProt P02754 17-178)” was tested, and the Ka [1] was 231000 M⁻¹, the Ka [2] was 104000 M⁻¹ and the inhibition of HPV16 PsV entry into HeLa cells (luciferase), IC50 [3] was 0.59 µg/mL.
